The record followed here is paper PMC12700547, “Auranofin attenuates TOPBP1-mediated ATR replication stress response and improves chemotherapeutic response in breast tumor models” (The Journal of Clinical Investigation, 2025).

One test deals with auranofin. As to the kind of experiment: BLI. The settings on record: auranofin 25, 50, 100, 200 µM; n = 2; parent: 2.358E-5 M.
Test [1] addresses T1, His-tagged recombinant TOPBP1 BRCT 7–8 (UniProt Q92547 1264-1493).
T1 construct: The cited crystal structures 7CMZ and 3AL3 hold BRCT 7–8; also called BRCT 7–8/WT; His-tagged BRCT 7–8; source: E coli cells, purified
In words: BLI; Octet RED96; biotin-peptides immobilized on biosensors; His-tagged BRCT 7–8 (1 μM) alone or preincubated with a serial dilution of compound (auranofin) as analyte; PBS with 0.1% BSA, 0.02% Tween-20, 1% DMSO; 2 minutes of dissociation; 1:1 binding model with local fit. Particulars: both partners purified.

Where no end group is shown, it is not given here. [ ]: non-standard residue; d: D form. pT = C[C@@H](OP(=O)(O)O)[C@H](N)C(=O)O

T1 sequence (Q92547 1264-1493): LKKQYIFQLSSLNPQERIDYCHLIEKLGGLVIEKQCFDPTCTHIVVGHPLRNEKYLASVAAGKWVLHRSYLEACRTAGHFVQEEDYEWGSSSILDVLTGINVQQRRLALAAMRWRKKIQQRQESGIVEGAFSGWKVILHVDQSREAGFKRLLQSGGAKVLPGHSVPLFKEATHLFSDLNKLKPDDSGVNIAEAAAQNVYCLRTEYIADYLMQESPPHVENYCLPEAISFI

As a reminder, the Kd is the equilibrium constant for the complex coming apart. Regarding “His-tagged recombinant TOPBP1 BRCT 7–8 (from UniProt Q92547) F1411A”, the Kd with auranofin stood at 4.22 mM.

As for GACFKDAEYIYPSLESDDDDPA (not fully specified (N-terminus); also: biotin, position not given here, also called PHF8/APS peptide) [biotin-APS peptide (acidic patch sequence of PHF8)], the binding result in test [1] is listed as “binds”.

B1: biotin-pFANCJ peptide (phosphorylated Thr1133 containing peptide of FANCJ) (peptide)
peptide: EAEDESIYF[pT]PELYDPEDT
modifications: not fully specified (N-terminus); printed as EAEDESIYF(pT)PELYDPEDT; also: biotin (site not given here)
notes: also called phosphorylated FANCJ peptide
Take B1: in test [1], the binding result was “binds”.

B2: biotin-Y989 peptide (Y989-containing peptide of the TOPBP1 AAD) (peptide)
peptide: ECKHLPESLYPHTYN
modifications: not fully specified (N-terminus); printed as ECKHLPESLY_989_PHTYN; also: biotin, position not given here
B2: the binding result in test [1] is listed as “binds”.

B3: biotin-F1071 peptide (F1071-containing peptide of the TOPBP1 AAD) (peptide)
peptide: TLEMRENFQKQLQEI
modifications: not fully specified (N-terminus); printed as TLEMRENF_1071_QKQLQEI; also: biotin, position not given here
For B3, the binding result in test [1] is listed as “binds”.
